Experimental data from article PMC4947157.

Tests used:
FANCD2;FANCI [1] = molecular target: T1, FANCD2;FANCI (Homo sapiens;Homo sapiens, UniProt Q9BXW9;Q9NVI1 1-1451;1-1328, |); test: EMSA; supershifted by anti-HA; 0.5 ug protein, 1 nM DNA; titrated 0.125-0.5 ug; EMSA: 25 mM Tris-HCl pH 7.5, 100 mM NaCl, 6% glycerol, 1 mM DTT, 10 ul, room temperature 1 h; 4% PAGE in 0.4x TBE at 4 C
FANCD2;FANCI [2] = molecular target: T1, FANCD2;FANCI; test: EMSA; 0.5 ug protein, 1 nM DNA; significantly stronger than non-crosslinked fork; titrated 0.125-0.5 ug; EMSA: 25 mM Tris-HCl pH 7.5, 100 mM NaCl, 6% glycerol, 1 mM DTT, 10 ul, room temperature 1 h; 4% PAGE in 0.4x TBE at 4 C

T1 sequence (Q9BXW9 whole entry, chain 1 of 2): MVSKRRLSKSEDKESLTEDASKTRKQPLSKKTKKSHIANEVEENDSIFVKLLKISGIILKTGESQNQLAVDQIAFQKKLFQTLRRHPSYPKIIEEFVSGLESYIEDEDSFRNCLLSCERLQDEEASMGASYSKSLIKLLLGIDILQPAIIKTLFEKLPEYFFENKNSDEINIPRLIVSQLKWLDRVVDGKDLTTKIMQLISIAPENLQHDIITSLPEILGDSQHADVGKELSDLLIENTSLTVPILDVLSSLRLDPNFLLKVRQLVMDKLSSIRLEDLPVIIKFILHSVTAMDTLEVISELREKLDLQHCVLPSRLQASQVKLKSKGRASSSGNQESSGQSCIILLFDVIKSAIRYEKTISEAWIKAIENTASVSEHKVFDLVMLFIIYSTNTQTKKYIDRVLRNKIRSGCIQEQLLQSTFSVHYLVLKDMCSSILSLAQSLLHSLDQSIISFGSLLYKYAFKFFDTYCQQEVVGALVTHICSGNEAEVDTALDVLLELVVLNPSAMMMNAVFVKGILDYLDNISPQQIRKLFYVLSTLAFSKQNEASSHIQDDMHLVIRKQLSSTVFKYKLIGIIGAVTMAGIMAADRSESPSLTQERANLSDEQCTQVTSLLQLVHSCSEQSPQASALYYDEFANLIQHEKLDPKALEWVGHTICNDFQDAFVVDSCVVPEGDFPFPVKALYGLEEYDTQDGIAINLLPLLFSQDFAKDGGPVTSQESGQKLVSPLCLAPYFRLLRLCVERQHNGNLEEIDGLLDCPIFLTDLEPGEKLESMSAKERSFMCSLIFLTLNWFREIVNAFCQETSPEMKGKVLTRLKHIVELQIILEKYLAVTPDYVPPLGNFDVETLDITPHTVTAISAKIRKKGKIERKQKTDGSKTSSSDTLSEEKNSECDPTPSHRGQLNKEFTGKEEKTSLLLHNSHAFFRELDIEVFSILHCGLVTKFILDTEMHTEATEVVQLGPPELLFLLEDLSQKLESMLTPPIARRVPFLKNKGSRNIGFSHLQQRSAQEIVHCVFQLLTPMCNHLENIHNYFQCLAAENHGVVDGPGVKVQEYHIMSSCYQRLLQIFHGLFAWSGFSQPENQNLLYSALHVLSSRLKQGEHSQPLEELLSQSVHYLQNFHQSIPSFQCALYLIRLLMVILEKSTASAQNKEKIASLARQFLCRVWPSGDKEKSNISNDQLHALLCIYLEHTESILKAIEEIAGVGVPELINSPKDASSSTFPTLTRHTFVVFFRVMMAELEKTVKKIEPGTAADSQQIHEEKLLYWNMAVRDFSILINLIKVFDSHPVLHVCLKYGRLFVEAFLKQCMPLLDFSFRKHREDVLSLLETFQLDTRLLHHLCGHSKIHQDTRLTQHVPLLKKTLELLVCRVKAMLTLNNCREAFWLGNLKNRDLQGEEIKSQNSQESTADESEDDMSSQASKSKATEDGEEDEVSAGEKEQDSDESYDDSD
T1 sequence (Q9NVI1 whole entry, chain 2 of 2): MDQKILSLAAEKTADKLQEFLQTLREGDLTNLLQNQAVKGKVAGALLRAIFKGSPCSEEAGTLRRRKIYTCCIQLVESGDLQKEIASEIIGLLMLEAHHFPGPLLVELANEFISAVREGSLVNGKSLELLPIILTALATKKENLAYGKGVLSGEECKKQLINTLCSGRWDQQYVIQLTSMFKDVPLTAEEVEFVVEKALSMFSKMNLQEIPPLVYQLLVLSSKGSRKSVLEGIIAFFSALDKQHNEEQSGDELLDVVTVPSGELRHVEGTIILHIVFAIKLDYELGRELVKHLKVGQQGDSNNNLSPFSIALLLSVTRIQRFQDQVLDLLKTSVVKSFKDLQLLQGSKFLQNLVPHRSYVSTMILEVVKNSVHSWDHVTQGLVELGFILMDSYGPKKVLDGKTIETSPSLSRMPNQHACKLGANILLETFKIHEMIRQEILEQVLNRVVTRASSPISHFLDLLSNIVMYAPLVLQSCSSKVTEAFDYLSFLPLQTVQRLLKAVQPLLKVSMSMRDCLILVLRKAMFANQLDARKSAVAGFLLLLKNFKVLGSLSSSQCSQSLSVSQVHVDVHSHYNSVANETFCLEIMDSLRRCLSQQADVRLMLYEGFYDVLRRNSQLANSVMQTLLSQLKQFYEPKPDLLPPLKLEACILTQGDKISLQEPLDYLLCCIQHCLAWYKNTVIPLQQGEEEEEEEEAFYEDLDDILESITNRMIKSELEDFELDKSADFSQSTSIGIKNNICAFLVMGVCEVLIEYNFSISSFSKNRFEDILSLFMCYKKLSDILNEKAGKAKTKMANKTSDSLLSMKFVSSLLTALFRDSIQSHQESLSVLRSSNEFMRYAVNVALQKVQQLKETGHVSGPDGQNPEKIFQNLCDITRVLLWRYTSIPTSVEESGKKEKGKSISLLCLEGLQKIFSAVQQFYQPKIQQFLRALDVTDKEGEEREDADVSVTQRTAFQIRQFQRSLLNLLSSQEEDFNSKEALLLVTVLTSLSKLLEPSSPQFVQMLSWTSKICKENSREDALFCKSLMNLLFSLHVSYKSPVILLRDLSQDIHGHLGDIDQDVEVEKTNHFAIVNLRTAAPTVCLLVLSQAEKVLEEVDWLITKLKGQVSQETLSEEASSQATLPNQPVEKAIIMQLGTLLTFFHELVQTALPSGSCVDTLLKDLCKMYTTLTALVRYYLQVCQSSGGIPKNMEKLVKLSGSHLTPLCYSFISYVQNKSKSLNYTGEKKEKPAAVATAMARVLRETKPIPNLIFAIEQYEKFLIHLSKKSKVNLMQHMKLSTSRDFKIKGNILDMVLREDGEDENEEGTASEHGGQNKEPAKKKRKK

B1: ICL14FF (dsDNA)
DNA 1: CATTGTGAATTCGCCTCTCTGTCTAGCCGAAGCTCGAAACGATCTTGTGC
DNA 2: GTCCATCAAAGTTCGACTGTGCGGCTAGACAGAGAGGCGAATTCACAATG
DNA 3: GCACAAGATCGTTTCGAGCTT
DNA 4: GTCGAACTTTGATGGAC
binding result (FANCD2;FANCI [1]): binds

B2: ICL14FF-XL (dsDNA)
DNA 1: B1 DNA 1
DNA 2: B1 DNA 2
DNA 3: GCACAAGATCGTTTCGAGCTT
DNA 4: GTCGAACTTTGATGGAC
modifications: 4,5',8-trimethylpsoralen (TMP) interstrand crosslink between S5 and S6; crosslinked bases bold in original, not recoverable from text
binding result (FANCD2;FANCI [2]): binds
